The values below come from US20230406951A1 (Pfizer, published 2023).

Substitutions are numbered along the chain they refer to.

This test deals with T1, human TNFR2 (human, UniProt P20333 23-461).
T1 construct: expressed on the surface of CHO cells; also called HuTNFR2; TNFRSF1B
T1 sequence: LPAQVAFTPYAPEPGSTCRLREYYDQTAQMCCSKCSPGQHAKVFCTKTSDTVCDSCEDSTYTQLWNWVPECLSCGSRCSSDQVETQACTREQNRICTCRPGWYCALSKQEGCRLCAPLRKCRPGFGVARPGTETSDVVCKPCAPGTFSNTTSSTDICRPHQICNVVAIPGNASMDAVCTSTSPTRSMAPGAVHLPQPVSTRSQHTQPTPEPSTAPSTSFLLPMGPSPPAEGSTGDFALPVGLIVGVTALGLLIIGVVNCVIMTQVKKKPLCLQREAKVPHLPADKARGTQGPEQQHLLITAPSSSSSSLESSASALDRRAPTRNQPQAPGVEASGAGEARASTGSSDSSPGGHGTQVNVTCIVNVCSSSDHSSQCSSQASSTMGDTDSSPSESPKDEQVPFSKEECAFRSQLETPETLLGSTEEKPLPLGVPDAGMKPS
The test is described as follows: binding to human TNFR2 CHO cells.

B1: IgG 1971 (antibody, name in Kabat numbering, V domains shown)
VH: QVQLVQSGAEVKKPGASVKVSCKVSGFSFPSSGVDWVRQAPGQGLEWLGVTHGSGSTHYNQKFQGRVTITKDTSKSTVYMELSSLRSEDTAVYYCASGERDEGFVYWGQGTLVTVSS
VL: DIQLTQSPSFLSASVGDRVTITCKASQNVGTAVAWYQQKPGKAPKLLIYAASTLQSGVPSRFSGSGSGTEFTLTISSLQPEDFATYYCQQYSSYPLTFGGGTKVEIKR
notes: IgG
As to B1, the binding result is “no binding”.

B2: IgG 2031 (antibody, name in Kabat numbering, V domains shown)
VH: B1 VH
VL: B1 VL with Q89L, Y91K
notes: IgG
On to B2, for which the binding result is listed as “no binding”.

B3: IgG 2037 (antibody, name in Kabat numbering, V domains shown)
VH: B1 VH with H52R, S54E, R100S, D101T
VL: B1 VL with Q89L
notes: IgG
As to B3, the binding result is given as “no binding”.

B4: IgG 2017 (antibody, name in Kabat numbering, V domains shown)
VH: B1 VH with H52R, S54E, R100S, D101T
VL: B1 VL with Q89L, Y91K
notes: IgG
For B4, the binding result is given as “no binding”.

B5: IgG 1972 (antibody, name in Kabat numbering, V domains shown)
VH: B1 VH with R100Q
VL: B1 VL
notes: IgG
As for B5, the binding result is recorded as “no binding”.

B6: IgG 2034 (antibody, name in Kabat numbering, V domains shown)
VH: B1 VH with H52K, S54Q, R100H
VL: B1 VL with Q89L
notes: IgG
Turning to B6, the binding result was “no binding”.

B7: IgG 2043 (antibody, name in Kabat numbering, V domains shown)
VH: B1 VH with H52F, G53Q, S54E
VL: B1 VL with Q89L
notes: IgG
With B7, the binding result is “no binding”.

B8: IgG 2036 (antibody, name in Kabat numbering, V domains shown)
VH: B1 VH with H52K, S54Q, R100Q
VL: B1 VL with Q89L
notes: IgG
With B8, the binding result is “no binding”.

B9: IgG 2026 (antibody, name in Kabat numbering, V domains shown)
VH: B1 VH with H52L, S54H, R100H
VL: B1 VL with Q89L, Y91K
notes: IgG
Take B9: the binding result was “no binding”.

B10: IgG 2052 (antibody, name in Kabat numbering, V domains shown)
VH: B1 VH with R100Q
VL: B1 VL with Q89L
notes: IgG
Turning to B10, the binding result is given as “no binding”.

B11: IgG 2051 (antibody, name in Kabat numbering, V domains shown)
VH: B1 VH
VL: B1 VL with Q89L
notes: IgG
On to B11, for which the binding result is “no binding”.

B12: IgG 2050 (antibody, name in Kabat numbering, V domains shown)
VH: B1 VH with R100H
VL: B1 VL with Q89L
notes: IgG
As for B12, the binding result was “no binding”.

B13: IgG 2015 (antibody, name in Kabat numbering, V domains shown)
VH: B1 VH with H52K, S54Q
VL: B1 VL with Q89L, Y91K
notes: IgG
As for B13, the binding result was “no binding”.

B14: IgG 2025 (antibody, name in Kabat numbering, V domains shown)
VH: B1 VH with H52L, S54H, R100S, D101T
VL: B1 VL with Q89L, Y91K
notes: IgG
Regarding B14, the binding result is “no binding”.

B15: IgG 2016 (antibody, name in Kabat numbering, V domains shown)
VH: B1 VH with H52K, S54Q, R100Q
VL: B1 VL with Q89L, Y91K
notes: IgG
With B15, the binding result is “no binding”.

B16: IgG 2021 (antibody, name in Kabat numbering, V domains shown)
VH: B1 VH with H52F, G53Q, S54E, R100S, D101T
VL: B1 VL with Q89L, Y91K
notes: IgG
As to B16, the binding result is listed as “no binding”.

B17: IgG 2019 (antibody, name in Kabat numbering, V domains shown)
VH: B1 VH with H52R, S54E
VL: B1 VL with Q89L, Y91K
notes: IgG
As for B17, the binding result was “no binding”.

B18: IgG 2035 (antibody, name in Kabat numbering, V domains shown)
VH: B1 VH with H52K, S54Q
VL: B1 VL with Q89L
notes: IgG
Turning to B18, the binding result is given as “no binding”.

B19: IgG 2023 (antibody, name in Kabat numbering, V domains shown)
VH: B1 VH with H52F, G53Q, S54E
VL: B1 VL with Q89L, Y91K
notes: IgG
B19: the binding result is given as “no binding”.

B20: IgG 2047 (antibody, name in Kabat numbering, V domains shown)
VH: B1 VH with H52L, S54H
VL: B1 VL with Q89L
notes: IgG
With B20, the binding result is given as “no binding”.

B21: IgG 2048 (antibody, name in Kabat numbering, V domains shown)
VH: B1 VH with H52L, S54H, R100Q
VL: B1 VL with Q89L
notes: IgG
Consider B21, for which the binding result is “no binding”.

B22: IgG 2045 (antibody, name in Kabat numbering, V domains shown)
VH: B1 VH with H52L, S54H, R100S, D101T
VL: B1 VL with Q89L
notes: IgG
As for B22, the binding result is on record as “no binding”.

B23: IgG 2046 (antibody, name in Kabat numbering, V domains shown)
VH: B1 VH with H52L, S54H, R100H
VL: B1 VL with Q89L
notes: IgG
In the case of B23, the binding result is “no binding”.

B24: IgG 2038 (antibody, name in Kabat numbering, V domains shown)
VH: B1 VH with H52R, S54E, R100H
VL: B1 VL with Q89L
notes: IgG
Regarding B24, the binding result is recorded as “no binding”.

B25: IgG 2030 (antibody, name in Kabat numbering, V domains shown)
VH: B1 VH with R100H
VL: B1 VL with Q89L, Y91K
notes: IgG
Take B25: the binding result was “no binding”.

B26: IgG 2042 (antibody, name in Kabat numbering, V domains shown)
VH: B1 VH with H52F, G53Q, S54E, R100H
VL: B1 VL with Q89L
notes: IgG
Turning to B26, the binding result is given as “no binding”.

B27: IgG 2044 (antibody, name in Kabat numbering, V domains shown)
VH: B1 VH with H52F, G53Q, S54E, R100Q
VL: B1 VL with Q89L
notes: IgG
Consider B27, for which the binding result is listed as “no binding”.

B28: IgG 2013 (antibody, name in Kabat numbering, V domains shown)
VH: B1 VH with H52K, S54Q, R100S, D101T
VL: B1 VL with Q89L, Y91K
notes: IgG
For the molecule B28, the binding result was “no binding”.

B29: IgG 2039 (antibody, name in Kabat numbering, V domains shown)
VH: B1 VH with H52R, S54E
VL: B1 VL with Q89L
notes: IgG
On to B29, for which the binding result was “no binding”.

B30: IgG 2033 (antibody, name in Kabat numbering, V domains shown)
VH: B1 VH with H52K, S54Q, R100S, D101T
VL: B1 VL with Q89L
notes: IgG
Turning to B30, the binding result was “no binding”.

B31: IgG 2041 (antibody, name in Kabat numbering, V domains shown)
VH: B1 VH with H52F, G53Q, S54E, R100S, D101T
VL: B1 VL with Q89L
notes: IgG
B31: the binding result is listed as “no binding”.

B32: IgG 2022 (antibody, name in Kabat numbering, V domains shown)
VH: B1 VH with H52F, G53Q, S54E, R100H
VL: B1 VL with Q89L, Y91K
notes: IgG
On to B32, for which the binding result was “no binding”.

B33: IgG 2032 (antibody, name in Kabat numbering, V domains shown)
VH: B1 VH with R100Q
VL: B1 VL with Q89L, Y91K
notes: IgG
With B33, the binding result was “no binding”.

B34: TetraFab 2171 (antibody)
heavy: QVQLVQSGAEVKKPGASVKVSCKVSGFSFPSSGVDWVRQAPGQGLEWLGVTRGEGSTHYNQKFQGRVTITKDTSKSTVYMELSSLRSEDTAVYYCASGEWDEGFVYWGQGTLVTVSSASTKGPSVFPLAPSSKSTSGGTAALGCLVKDYFPEPVTVSWNSGALTSGVHTFPAVLQSSGLYSLSSVVTVPSSSLGTQTYICNVNHKPSNTKVDKKVEPKSCGGGGSQVQLVQSGAEVKKPGASVKVSCKVSGFSFPSSGVDWVRQAPGQGLEWLGVTRGEGSTHYNQKFQGRVTITKDTSKSTVYMELSSLRSEDTAVYYCASGEWDEGFVYWGQGTLVTVSSASTKGPSVFPLAPSSKSTSGGTAALGCLVKDYFPEPVTVSWNSGALTSGVHTFPAVLQSSGLYSLSSVVTVPSSSLGTQTYICNVNHKPSNTKVDKKVEPKSCDKTHTCPPCPAPEAAGAPSVFLFPPKPKDTLMISRTPEVTCVVVDVSHEDPEVKFNWYVDGVEVHNAKTKPREEQYNSTYRVVSVLTVLHQDWLNGKEYKCKVSNKALPAPIEKTISKAKGQPREPQVYTLPPSREEMTKNQVSLTCLVKGFYPSDIAVEWESNGQPENNYKTTPPVLDSDGSFFLYSKLTVDKSRWQQGNVFSCSVMHEALHNHYTQKSLSLSPGK
light: DIQLTQSPSFLSASVGDRVTITCKASQNVGTAVAWYQQKPGKAPKLLIYAASTLQSGVPSRFSGSGSGTEFTLTISSLQPEDFATYYCLQYSSYPLTFGGGTKVEIKRTVAAPSVFIFPPSDEQLKSGTASVVCLLNNFYPREAKVQWKVDNALQSGNSQESVTEQDSKDSTYSLSSTLTLSKADYEKHKVYACEVTHQGLSSPVTKSFNRGEC
notes: TetraFab
As for B34, the binding result is reported as “no binding”.

B35: TetraFab 2054 (antibody)
heavy: B34 heavy with R52K, E54Q, R277K, E279Q
light: B34 light with L89Q
notes: TetraFab
As for B35, the binding result is given as “no binding”.
